Results reported in the nanobody polyreactivity screen of Harvey et al. (2022).

assay: yeast display, Sf9 membrane polyspecificity reagent, FACS + sequencing; frameworks hold sequencing errors
How it was run: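 After 36–48 hours of galactose induction, yeast (Saccharomyces cerevisiae BJ5465) displaying a synthetic nanobody library were stained at 4 °C for 1 hour with 10% biotinylated, detergent-solubilized Sf9 membrane reagent. Streptavidin microbeads enriched the stained cells before FACS sorting into low and high (top ~1%) gates on anti-HA and streptavidin fluorescence. Each clone's polyreactivity label reflects its gate of origin.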

Sequence	polyreactivity (PSR sort gate)
QVQLVESGGGLVQAGGSLRLSCAASGNTFAPYAMGWYRQAPGKERELVATISYRGGSTNYADSVKGRFTISRDNAKNTVYLQMNSLKPEDTAVYYCNARYRWVVNRYSASGGSYNYWGQGTQVTVSS	high polyreactivity
QVQLVESGGGLVQAGGSLRLSCAASGNTFAYNVMGWYRQAPGKERELVAAISRSGGSTYYADSVKGRFTISRDNAKNTVYLQMNSLKPEDTAVYYCAAVGRRVRPEGSYNRWGHDYWGQGTQVTVSS	high polyreactivity
QVQLVESGGGLVQAGGSLRLSCAASGNTFDEYAMGWYRQAPGKEREFVAAIRNTYYADSVKGRFTISRDNAKNTVYLQMNSLKPEDTAVYYCAKPSQLHPYEYWGQGTQVTVSS	low polyreactivity
QVQLVESGGGLVQAGGSLRLSCAASGNTFEYYTMGWYRKAPGKERELVASIDWSTTSTYYADSVKGRFTISRDNAKNTVYLQMNSLKPEDTAVYYCNTVYDYYHLGLYSGFRYHYWGQGTQGTVSS	low polyreactivity
QVQLVESGGGLVQAGGSLRLSCAASGNTFGHYTMGWYRQAPGKERELVAAISWDDSSTNYADSVKGRFTISRDNAKNTVYLQMNILKPEDTAVYYCAKETELRTQYPYVYDYWGQGSQVTVSS	low polyreactivity
QVQLVESGGGLVQAGGSLRLSCAASGNTFGPYDMGWYRQSPGKERELVAGITSGGSTYYADSVKGRFTISRDNAKNTVYLQMNSLKPEDTAVYYCAADDYLWVYWYDYWGQGTQVTVSS	high polyreactivity
QVQLVESGGGLVQAGGSLRLSCAASGNTFGRYAMGGYRQAPGKERELVAAISWSGGSTYSADSVKGRFTISRDNAKNSLYLQMNSLKPEDTAVYYCAANSWRGFEYWGQGTQVTVSS	high polyreactivity
QVQLVESGGGLVQAGGSLRLSCAASGNTFGYNAMGWYRQAPGKERELVASITWSGGSTYYADSVKGRFTISRDNAKNTVYLEMKSLKPEDTAVYYCNADVRYGRDHWGQGTQVTVSS	low polyreactivity
QVQLVESGGGLVQAGGSLRLSCAASGNTFIDYAMGWYRQAPGKERELVASITSGGGSTYYADSVKGRFTISRDNAKNTVYLQMNSLKPEDTAVYYCAAERYYSEAIFRSYDYWGQGTQVTVSS	low polyreactivity
QVQLVESGGGLVQAGGSLRLSCAASGNTFIPNAMGWYRQAPGKERELVAAIRASGGSTYYADSVKGRFTISRDNAKNTVYLLMNSLKPEDTAVYYCNDDIWYKTYDYWGQGTQVTVSS	low polyreactivity
QVQLVESGGGLVQAGGSLRLSCAASGNTFIRNVMGWYRQAPGKERELVAGSRTGGSTFYADSVKGRFTISRDNAKNTVYLQMNSLKPEDTAVYYCNADVGDEGNLPYVIRPMDYWGQGTQVTVSS	low polyreactivity
QVQLVESGGGLVQAGGSLRLSCAASGNTFKGYAMGWYRQAPGKERELVAAISWSGSSTYYADSVKGRFTISRDYAKNTVYLQMNILKPEDTAVYYCNRKYLGRYASVYGYGYWGQGTQVTVSS	high polyreactivity
QVQLVESGGGLVQAGGSLRLSCAASGNTFLIYAMGWYRQAPGKERELVAGITSSGSTYYADSVKGRFTISRDNAKNTVYLQMNSLKPEDTAVFYCAAEYIFYLYYDTAELYDYWGQGTQVTVSS	low polyreactivity
QVQLVESGGGLVQAGGSLRLSCAASGNTFLRYAMGWYRQAPGKERELVAAISRSGGSTYYADSVKGRFTISRDNAKNTVYLQMNSLKPEDTAVYYCATRVYFSPYRYDYWGQGTQVTVSS	high polyreactivity
QVQLVESGGGLVQAGGSLRLSCAASGNTFLYYSMGWYRQAPGKEMELVASINLSDGSTYYADSVKGRFTISRDNAKNTVYFQMNSLKPEDTAVYYCAAVYGGYTIYDYWGQGTQVTVSS	low polyreactivity
QVQLVESGGGLVQAGGSLRLSCAASGNTFNENAMGWYRQSPGKERELVAAITSSGVSTFYADSVKGRFTISRDNAKNTVYLQMNSLKPEDTAVYYCAAEYYELDEYTGDYWVGSDYWGQGTQVTVSS	low polyreactivity
QVQLVESGGGLVQAGGSLRLSCAASGNTFNLYAMGWYRQAPGKERELVASMTSGGGTNYADSVKGRFTISRDNAKNTVYLQMNSLKPEDTAFFYCAATDWFSEYYWGQGTQVTVSS	low polyreactivity
QVQLVESGGGLVQAGGSLRLSCAASGNTFNVYAMGWYRQAPGKERELVAAITLSGGSTYYADSVKGRFTFSRDNAKNTVYLQMNSLKPEDTAVYYCNAEDDGTDYDYWGQGTEVTVSS	low polyreactivity
QVQLVESGGGLVQAGGSLRLSCAASGNTFNYNAMGWYRQAPGKERELVAAITSSGGSTYYADSVKGRFTISRDYAKNTVYLQMNSLKPDDTAVYYCAADLWQDSYSYWFDYWGQGTQVTVSS	high polyreactivity
QVQLVESGGGLVQAGGSLRLSCAASGNTFPVYAMGWYRKASGKERELVATITSGGSTNYADSVKGRFTFSRDNAKNTVYLQMNSLKPEDTAVYYCARRAVYSKRRYDYWGHGTQVTVSS	low polyreactivity
QVQLVESGGGLVQAGGSLRLSCAASGNTFPVYAMGWYRQASGKERELVATITSGGSTNYADSVKGRFTISRDNAKNTVYLQMNSLKQEDTAVYYCARRAVYSKRRYDYWGQGTQVTVSS	low polyreactivity

Sequence	polyreactivity (PSR sort gate)
QVQLVESGGGLVQAGGSLRLSCAASGNTFQDYAMGWYRQAPGKERELVAAITQSGGSTFYADSVKGRFTISRDNAKNTVYLQMNSLKPEDTAVYYCATRTRYPRYYYWGQGTQVTVSS	high polyreactivity
QVQLVESGGGLVQAGGSLRLSCAASGNTFQWYVMGWYRQAPGKERELVAAITTRGGSTYYADSVKGRFTISRDNAKNTVYLQMNSLKPEDTAVYYCAKDWYASWYTKYDYWGQGTQVTVSS	low polyreactivity
QVQLVESGGGLVQAGGSLRLSCAASGNTFRAYAMGWYRQAPGKERELVATITWSGGITDYADSVKGRFTISRDNAKNTVYLQMNSLKPEDTAVYYCAARSYRWWNFNYWGQGTQVTVSS	high polyreactivity
QVQLVESGGGLVQAGGSLRLSCAASGNTFREYGMGWYRQAPGKERELVAAISSTGSTNYADSVKGRFTISRDNAKNTVYLQMNSLKPEDTAVYYCNRDRVWGSGVRTRGDYWGQVTQVTVSS	low polyreactivity
QVQLVESGGGLVQAGGSLRLSCAASGNTFRLYGMGWYRQAPGKERELVAAIRSGDRTYYADSVKGRFTISRDNAKNTVYLQMNSLKPEDTAVYYCAARVNLSKLFGYWGQGTQVTVSS	high polyreactivity
QVQLVESGGGLVQAGGSLRLSCAASGNTFRRYAMGWYRQAPGKERELVAAISYRGGSTYYADSVKGRFTISRDNAQNTVYLQMNSLKPEDTAVSYCNARFATSVLYDYWGQGTQVTVSS	high polyreactivity
QVQLVESGGGLVQAGGSLRLSCAASGNTFRYYAMGWYRQAPGKERELVAAISGDGGSTYYADSVKGRFTISRDNAKNTVYLQMNSLKPEDTAVYYCNKAGRRRYRESDYWGQGTQVTVSS	high polyreactivity
QVQLVESGGGLVQAGGSLRLSCAASGNTFSDYAMGWYRQAPGKERELVAAISSSGVRTYYADSVKGRFTISRDNAKNTVYLQMNSLKPEDTAVYYCNAGYVRRYYPASGYGYWGQGTQVTVSS	high polyreactivity
QVQLVESGGGLVQAGGSLRLSCAASGNTFSPNAMGWYRQAPGKERELVAALDSRDGITYYADSVKGRFTISRDNAKNTVYLQMNSLKPEDPAVYYCNAEGSYPDVSPVLGYDYWGQGTQVTVSS	low polyreactivity
QVQLVESGGGLVQAGGSLRLSCAASGNTFSQYAMGWYRQAPGKERELLAAISGSGGDTYYADSVKGRFTISRDNAKNTVYLQMNIMKPEDTAVYYCNADQESVFYEDYDYWGQGTQVTVSS	low polyreactivity
QVQLVESGGGLVQAGGSLRLSCAASGNTFSSNAMGWYRQAPGKERELVAGITKSGGRTYYADSVKGRFTISRDNAKNTVSLQMNSLKPEDTAVYYCAAVGSTVFGTRYYYWGQGTQVTVSS	high polyreactivity
QVQLVESGGGLVQAGGSLRLSCAASGNTFSYYAMGWYRQAPGKEREFVAAIRKSGASTYYADSVKGRFTISRDNAKNTVYLQMNSLKPEDTAVYYCAADGQVSYALGFDYWGQGTQVTVSS	high polyreactivity
QVQLVESGGGLVQAGGSLRLSCAASGNTFTRNTMGWYRQAPGKERELVASISLSGASTYYADSVKGRFTISRDNAKNTVYLQMNSLKPEDTAVYYCAKRRSYGYYRAYNYWGQGTQVTVSS	high polyreactivity
QVQLVESGGGLVQAGGSLRLSCAASGNTFTTNAMGWYRQAPGKERELVAAIRWRADSTYYADSVKGRFTISRDNAKNTVYLQMNSLKPEDTAVYYCASRYSLRYYYWGQGTQVTVSS	low polyreactivity
QVQLVESGGGLVQAGGSLRLSCAASGNTFVPYAMGWYIQAPRKEREFVAAISSTSGSTYYADSVKGRITISRDNAKNTVYLQMNSLKPEDTAVYYCATKRPYSSKRYKYWKVDYWGQGTQVTVSS	high polyreactivity
QVQLVESGGGLVQAGGSLRLSCAASGNTFVRYAMGWYRQAPGKERELVAAITRSGSSTYYADSVKGRFTISRDNAKNTVYLQMNSLKPEDTAVYYCAAYSWYYAGYDYWGQGTQVTVSS	high polyreactivity
QVQLVESGGGLVQAGGSLRLSCAASGNTFVYNDMGWSRQAPGKERELVADIRYSGSTYYADSVMGRFTISRDNAKNTVYLQMNSLKPEDTAVYYCAKAYYVLSWMGYWGQGTPVTVSS	low polyreactivity
QVQLVESGGGLVQAGGSLRLSCAASGNTFWLNAMGWYRQAPGKERELVASISYSGASTYYADSVKGRFTISRDNAKNTVYFQMNSLKPEDTAVYYCNTDGDDFFHVIYDYWGQGTQVTVSS	low polyreactivity
QVQLVESGGGLVQAGGSLRLSCAASGNTFYANVMGWYRQAPGKERELVASITWSGGSTYYADSVKGRFTISRDNAKNTVYLQMNSLKPEDTAVYYCATSGDRLVWGQGTQVTVSS	low polyreactivity
QVQLVESGGGLVQAGGSLRLSCAASGNTFYAYAMGWYRQAPGKERELVASITLSGDSTYYADSVKGRFTISRDNAKNSVYLQMSSLIPEDTAVYYCAGVYTYPLGYYHYTYDYWGQGTQVTVSS	low polyreactivity
